“Also recorded” adds a separate entry of the source.
B1: EgVS: Eryngium glaciale valencene synthase, amino acid sequence SEQ ID NO:1; His-tagged at the C-terminus for kinetics (protein)
chain: MSLNVLSTSGSAPTTKSSEITRRSANYHPSLWGDKFLEYSSPDHLKNDSFTEKKHEQLKEEVKKMLVETVQKPQQQLNLINEIQRLGLSYLFEPEIEAALQEISVTYDEFCCSTDADDLHNVALSFRILREHGHNVSSDVFQKFMDSNGKLKDYLVNDARGLLSLYEATHFRVHNDDKLEELLSVTTSRLEHLKSHVKYPLEDEISRALKHPLHKELNRLGARYYISIYEKFDSHNKLLLEFAKLDFNRLQKMYQHELAHLTRWWKDLDFTNKLPFARDRIVEGYFWILGMYFEPERKDVREFLNRVFALITVVDDTYDVYGTFKELLLFTDAIERWGTSDLDQLPGYMRIIYQALMDVYNQMEEKLSMKADCPTYRLEFAIETVKAMFRSYLEEARWSKEHYIPSMEEYMTVALVSVGYKTILTNSFVGMGDIATREVFEWVFNSPLIIRASDLIARLGDDIGGHEEEQKKGDAATAIECYIKENHVTKHEAYDEFQKQIDNAWKDLNKEALRPFPVPMTFITRVVHFTRAIHVIYADFSDGYTRSDKAIRGYITSLLVDPIPL
modifications: C-terminal His tag; Eryngium glaciale; valencene synthase protein
notes: His-tagged at the C-terminus for kinetics

How the values were obtained:
[1] = test system: ticks and mosquitoes; conditions: against ticks and mosquitoes; cited from earlier work
[2] = test system: Saccharomyces cerevisiae strain ALX11-30; assay: Shake flask assay of cells expressing valencene synthase; format: cell-based; conditions: FIG. 7, cells expressing the synthase
Description: Seed cultures were started in 250 mL flasks by inoculating 15 mL of SD or SDE medium (for ALX11-30 and ALX7-95 strains, respectively) with freshly growing colonies of the 7 strains shown in Table 5 above. The cultures were grown for 24 hours, and 2.5 mL of each culture were used to inoculate 50 mL of fermentation medium (2% ammonium sulfate, 2% potassium phosphate, 0.1% NaCl, 0.6% MgSO4.7H2O, 0.4% yeast extract, 1 mL mineral solution [FeSO4.7H2O 0.028%, ZnSO4.7H2O 0.029%, CuSO4.5H2O 0.008%, Na2MoO4.2H2O 0.024%, CoCl2.6H2O 0.024%, MnSO4.H2O 0.017%, HCl 1 mL], 0.5 mL 50% glucose, 1.5 mL vitamin solution [biotin 0.001%, Ca-pantothenate 0.012%, inositol 0.06%, pyridoxine-HCl 0.012%, thiamine-HCl 0.012%], and 0.5 mL 10% CaCl2) in a 250 mL baffled flask. The cultures were grown at 28° C. After 16 hours of incubation, the cultures were fed 3.6 mL of 50% glucose and 0.667 mL of 12.5% yeast extract. […] An aliquot of the organic phase was analyzed by gas chromatography and the amount of valencene produced was quantified by calculating the area under the peak representing valencene. […]
Table 6a below provides product distribution profiles including the amount of valencene produced from the shake flask assay, as determined by gas chromatography, of CVS 277 compared to two strains that produce EGVS in the ALX11-30 strain (as described in Example 3).

[3] = Steady state kinetic analysis of His-tag purified valencene synthases; format: biochemical
Description: In this example, the activity of E. glaciale valencene synthase (EgVS; SEQ ID NO:1) and of the citrus valencene synthase designated V277 (SEQ ID NO:31) were evaluated by steady state kinetic analysis. To compare the activities of these enzymes in vitro, the valencene synthases were Histidine-tagged at the C-terminus, expressed in E. coli, purified by nickel chelate chromatography, and evaluated for activity by steady state kinetic analysis. […] T=30C. Detection: GC/MS-SIM.

| Molecule | Repellent and insecticide effect [1] | Valencene production in yeast compared to the CVS synthase ([2]; listed as EG synthase) | Valencene production in yeast compared to the CVS synthase ([2]; listed as EVS) | Turnover compared with valencene synthase V277 [3] | Total and specific activity compared with valencene synthase V277 ([3]; side-by-side comparison, FIG. 6) |
| --- | --- | --- | --- | --- | --- |
| C=C(C)[C@@H]1CCC2=CC(=O)C[C@@H](C)[C@]2(C)C1 [nootkatone, 4,4a,5,6,7,8-hexahydro-6-isopropenyl-4,4-a-dimethyl-2(3H)-naphthalenone] | effective repellent and insecticide |  |  |  |  |
| B1 |  | more than twice the amount of valencene | significantly greater | turned over significantly more times | dramatically higher total and specific activity; also recorded: exhibits greater activity |

— patent US10000749B2, “Valencene synthase polypeptides, encoding nucleic acid molecules and uses thereof” (Evolva, Inc., priority 2013, dated 2018)
